B1: 20E6_H0.2aL1_hIgG1 VH_D52A (antibody, V domains shown)
VH: EVQLVQSGAEVKKPGASVKVSCKASGYTFTSYWMHWVRQAPGQGLEWMGRIAPQSGGIKYAQKFQGRATLTVDTSTSTAYMELSRLRSDDTAVYYCARWDYGGYFDVWGQGTLVTVSS
VL: DIQMTQSPSSLSASVGDRVTITCRASQDITNYLNWYQQKPGKAVKLLIYYTSRLHSGVPSRFSGSGSGTDYTLTISSLQPEDFATYFCQQGDTLPWTFGQGTKLEIKR
B2: 20E6_H0.2aL1_hIgG1 VH_S31A (antibody, V domains shown)
VH: EVQLVQSGAEVKKPGASVKVSCKASGYTFTAYWMHWVRQAPGQGLEWMGRIDPQSGGIKYAQKFQGRATLTVDTSTSTAYMELSRLRSDDTAVYYCARWDYGGYFDVWGQGTLVTVSS
VL: DIQMTQSPSSLSASVGDRVTITCRASQDITNYLNWYQQKPGKAVKLLIYYTSRLHSGVPSRFSGSGSGTDYTLTISSLQPEDFATYFCQQGDTLPWTFGQGTKLEIKR
B3: 20E6_H0.2aL1_hIgG1 VH_P53A (antibody, V domains shown)
VH: EVQLVQSGAEVKKPGASVKVSCKASGYTFTSYWMHWVRQAPGQGLEWMGRIDAQSGGIKYAQKFQGRATLTVDTSTSTAYMELSRLRSDDTAVYYCARWDYGGYFDVWGQGTLVTVSS
VL: DIQMTQSPSSLSASVGDRVTITCRASQDITNYLNWYQQKPGKAVKLLIYYTSRLHSGVPSRFSGSGSGTDYTLTISSLQPEDFATYFCQQGDTLPWTFGQGTKLEIKR
B4: 20E6_H0.2aL1_hIgG1 VH_Q54A (antibody, V domains shown)
VH: EVQLVQSGAEVKKPGASVKVSCKASGYTFTSYWMHWVRQAPGQGLEWMGRIDPASGGIKYAQKFQGRATLTVDTSTSTAYMELSRLRSDDTAVYYCARWDYGGYFDVWGQGTLVTVSS
VL: DIQMTQSPSSLSASVGDRVTITCRASQDITNYLNWYQQKPGKAVKLLIYYTSRLHSGVPSRFSGSGSGTDYTLTISSLQPEDFATYFCQQGDTLPWTFGQGTKLEIKR
B5: 20E6_H0.2aL1_hIgG1 VH_K59A (antibody, V domains shown)
VH: EVQLVQSGAEVKKPGASVKVSCKASGYTFTSYWMHWVRQAPGQGLEWMGRIDPQSGGIAYAQKFQGRATLTVDTSTSTAYMELSRLRSDDTAVYYCARWDYGGYFDVWGQGTLVTVSS
VL: DIQMTQSPSSLSASVGDRVTITCRASQDITNYLNWYQQKPGKAVKLLIYYTSRLHSGVPSRFSGSGSGTDYTLTISSLQPEDFATYFCQQGDTLPWTFGQGTKLEIKR
B6: 20E6_H0.2aL1_hIgG1 VH_T28A (antibody, V domains shown)
VH: EVQLVQSGAEVKKPGASVKVSCKASGYAFTSYWMHWVRQAPGQGLEWMGRIDPQSGGIKYAQKFQGRATLTVDTSTSTAYMELSRLRSDDTAVYYCARWDYGGYFDVWGQGTLVTVSS
VL: DIQMTQSPSSLSASVGDRVTITCRASQDITNYLNWYQQKPGKAVKLLIYYTSRLHSGVPSRFSGSGSGTDYTLTISSLQPEDFATYFCQQGDTLPWTFGQGTKLEIKR
B7: 20E6_H0.2aL1_hIgG1 VH_I58A (antibody, V domains shown)
VH: EVQLVQSGAEVKKPGASVKVSCKASGYTFTSYWMHWVRQAPGQGLEWMGRIDPQSGGAKYAQKFQGRATLTVDTSTSTAYMELSRLRSDDTAVYYCARWDYGGYFDVWGQGTLVTVSS
VL: DIQMTQSPSSLSASVGDRVTITCRASQDITNYLNWYQQKPGKAVKLLIYYTSRLHSGVPSRFSGSGSGTDYTLTISSLQPEDFATYFCQQGDTLPWTFGQGTKLEIKR
B8: 20E6_H0.2aL1_hIgG1 VH_D100A (antibody, V domains shown)
VH: EVQLVQSGAEVKKPGASVKVSCKASGYTFTSYWMHWVRQAPGQGLEWMGRIDPQSGGIKYAQKFQGRATLTVDTSTSTAYMELSRLRSDDTAVYYCARWAYGGYFDVWGQGTLVTVSS
VL: DIQMTQSPSSLSASVGDRVTITCRASQDITNYLNWYQQKPGKAVKLLIYYTSRLHSGVPSRFSGSGSGTDYTLTISSLQPEDFATYFCQQGDTLPWTFGQGTKLEIKR
B9: 20E6_H0.2aL1_hIgG1 VH_G57A (antibody, V domains shown)
VH: EVQLVQSGAEVKKPGASVKVSCKASGYTFTSYWMHWVRQAPGQGLEWMGRIDPQSGAIKYAQKFQGRATLTVDTSTSTAYMELSRLRSDDTAVYYCARWDYGGYFDVWGQGTLVTVSS
VL: DIQMTQSPSSLSASVGDRVTITCRASQDITNYLNWYQQKPGKAVKLLIYYTSRLHSGVPSRFSGSGSGTDYTLTISSLQPEDFATYFCQQGDTLPWTFGQGTKLEIKR
B10: 20E6_H0.2aL1_hIgG1 VH_H35A (antibody, V domains shown)
VH: EVQLVQSGAEVKKPGASVKVSCKASGYTFTSYWMAWVRQAPGQGLEWMGRIDPQSGGIKYAQKFQGRATLTVDTSTSTAYMELSRLRSDDTAVYYCARWDYGGYFDVWGQGTLVTVSS
VL: DIQMTQSPSSLSASVGDRVTITCRASQDITNYLNWYQQKPGKAVKLLIYYTSRLHSGVPSRFSGSGSGTDYTLTISSLQPEDFATYFCQQGDTLPWTFGQGTKLEIKR
B11: 20E6_H0.2aL1_hIgG1 VH_S55A (antibody, V domains shown)
VH: EVQLVQSGAEVKKPGASVKVSCKASGYTFTSYWMHWVRQAPGQGLEWMGRIDPQAGGIKYAQKFQGRATLTVDTSTSTAYMELSRLRSDDTAVYYCARWDYGGYFDVWGQGTLVTVSS
VL: DIQMTQSPSSLSASVGDRVTITCRASQDITNYLNWYQQKPGKAVKLLIYYTSRLHSGVPSRFSGSGSGTDYTLTISSLQPEDFATYFCQQGDTLPWTFGQGTKLEIKR
B12: 20E6_H0.2aL1_hIgG1 VH_G56A (antibody, V domains shown)
VH: EVQLVQSGAEVKKPGASVKVSCKASGYTFTSYWMHWVRQAPGQGLEWMGRIDPQSAGIKYAQKFQGRATLTVDTSTSTAYMELSRLRSDDTAVYYCARWDYGGYFDVWGQGTLVTVSS
VL: DIQMTQSPSSLSASVGDRVTITCRASQDITNYLNWYQQKPGKAVKLLIYYTSRLHSGVPSRFSGSGSGTDYTLTISSLQPEDFATYFCQQGDTLPWTFGQGTKLEIKR
B13: 20E6_H0.2aL1_hIgG1 VH_V107A (antibody, V domains shown)
VH: EVQLVQSGAEVKKPGASVKVSCKASGYTFTSYWMHWVRQAPGQGLEWMGRIDPQSGGIKYAQKFQGRATLTVDTSTSTAYMELSRLRSDDTAVYYCARWDYGGYFDAWGQGTLVTVSS
VL: DIQMTQSPSSLSASVGDRVTITCRASQDITNYLNWYQQKPGKAVKLLIYYTSRLHSGVPSRFSGSGSGTDYTLTISSLQPEDFATYFCQQGDTLPWTFGQGTKLEIKR
B14: 20E6_H0.2aL1_hIgG1 VH_T30A (antibody, V domains shown)
VH: EVQLVQSGAEVKKPGASVKVSCKASGYTFASYWMHWVRQAPGQGLEWMGRIDPQSGGIKYAQKFQGRATLTVDTSTSTAYMELSRLRSDDTAVYYCARWDYGGYFDVWGQGTLVTVSS
VL: DIQMTQSPSSLSASVGDRVTITCRASQDITNYLNWYQQKPGKAVKLLIYYTSRLHSGVPSRFSGSGSGTDYTLTISSLQPEDFATYFCQQGDTLPWTFGQGTKLEIKR
B15: 20E6_H0.2aL1_hIgG1 VH_M34A (antibody, V domains shown)
VH: EVQLVQSGAEVKKPGASVKVSCKASGYTFTSYWAHWVRQAPGQGLEWMGRIDPQSGGIKYAQKFQGRATLTVDTSTSTAYMELSRLRSDDTAVYYCARWDYGGYFDVWGQGTLVTVSS
VL: DIQMTQSPSSLSASVGDRVTITCRASQDITNYLNWYQQKPGKAVKLLIYYTSRLHSGVPSRFSGSGSGTDYTLTISSLQPEDFATYFCQQGDTLPWTFGQGTKLEIKR
B16: 20E6_H0.2aL1_hIgG1 VH_G26A (antibody, V domains shown)
VH: EVQLVQSGAEVKKPGASVKVSCKASAYTFTSYWMHWVRQAPGQGLEWMGRIDPQSGGIKYAQKFQGRATLTVDTSTSTAYMELSRLRSDDTAVYYCARWDYGGYFDVWGQGTLVTVSS
VL: DIQMTQSPSSLSASVGDRVTITCRASQDITNYLNWYQQKPGKAVKLLIYYTSRLHSGVPSRFSGSGSGTDYTLTISSLQPEDFATYFCQQGDTLPWTFGQGTKLEIKR
B17: 20E6_H0.2aL1_hIgG1 VH_D106A (antibody, V domains shown)
VH: EVQLVQSGAEVKKPGASVKVSCKASGYTFTSYWMHWVRQAPGQGLEWMGRIDPQSGGIKYAQKFQGRATLTVDTSTSTAYMELSRLRSDDTAVYYCARWDYGGYFAVWGQGTLVTVSS
VL: DIQMTQSPSSLSASVGDRVTITCRASQDITNYLNWYQQKPGKAVKLLIYYTSRLHSGVPSRFSGSGSGTDYTLTISSLQPEDFATYFCQQGDTLPWTFGQGTKLEIKR
B18: 20E6_H0.2aL1_hIgG1 VH_F29A (antibody, V domains shown)
VH: EVQLVQSGAEVKKPGASVKVSCKASGYTATSYWMHWVRQAPGQGLEWMGRIDPQSGGIKYAQKFQGRATLTVDTSTSTAYMELSRLRSDDTAVYYCARWDYGGYFDVWGQGTLVTVSS
VL: DIQMTQSPSSLSASVGDRVTITCRASQDITNYLNWYQQKPGKAVKLLIYYTSRLHSGVPSRFSGSGSGTDYTLTISSLQPEDFATYFCQQGDTLPWTFGQGTKLEIKR
B19: 20E6_H0.2aL1_hIgG1 VH_I51A (antibody, V domains shown)
VH: EVQLVQSGAEVKKPGASVKVSCKASGYTFTSYWMHWVRQAPGQGLEWMGRADPQSGGIKYAQKFQGRATLTVDTSTSTAYMELSRLRSDDTAVYYCARWDYGGYFDVWGQGTLVTVSS
VL: DIQMTQSPSSLSASVGDRVTITCRASQDITNYLNWYQQKPGKAVKLLIYYTSRLHSGVPSRFSGSGSGTDYTLTISSLQPEDFATYFCQQGDTLPWTFGQGTKLEIKR

Sequence of biotinylated human LAP-TGFβ1 (Example 14) (P01137 30-390 limits assumed): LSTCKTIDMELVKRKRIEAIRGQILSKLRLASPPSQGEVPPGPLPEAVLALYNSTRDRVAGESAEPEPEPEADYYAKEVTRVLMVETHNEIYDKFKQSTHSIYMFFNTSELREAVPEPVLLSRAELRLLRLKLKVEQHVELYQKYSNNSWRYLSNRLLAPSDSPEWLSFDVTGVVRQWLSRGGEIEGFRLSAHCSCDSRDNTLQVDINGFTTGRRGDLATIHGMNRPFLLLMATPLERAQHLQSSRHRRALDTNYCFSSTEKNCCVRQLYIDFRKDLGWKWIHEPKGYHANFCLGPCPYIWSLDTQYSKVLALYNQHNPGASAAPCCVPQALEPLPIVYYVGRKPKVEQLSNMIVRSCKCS

This assay deals with biotinylated human LAP-TGFβ1 (Example 14) (human, UniProt P01137 30-390, biotinylated, sites not stated). As to the kind of experiment: BLI, antigen on tip, CHO supernatant; ratio to wild type. The protocol:
A total of 49 single alanine substitutions were made in the heavy and light chain CDRs of the antibody to identify critical residues for human LAP-TGFβ1 binding. In addition, residue A25 in the light chain was substituted with glycine. Plasmid DNA for these variants was transfected into ExpiCHO cells in 1 mL cultures on 24-well plates, along with wells containing no DNA (negative control) and wells transfected with DNA for the wild-type antibody (positive control). IgG concentrations in each well were determined by binding to Protein A-functionalized tips. Tips were dipped into wells containing the supernatants from each culture. IgG concentrations were determined by comparing the rate of signal change for each well against the rate of signal change for a standard curve of purified 20E6_H0.2aL1_hIgG1 antibody diluted into ExpiCHO media. CHO supernatants were diluted to 0.6 μg/mL in media. A streptavidin-functionalized tip was equilibrated in binding buffer (10 mM sodium phosphate, 150 mM sodium chloride, 1% (w/v) bovine serum albumin, 0.05% (w/v) sodium azide, pH 7.4) and then dipped in a 5 μg/mL solution of biotinylated human LAP-TGFβ1 in binding buffer for 60 seconds to load the tip with antigen. The antigen-loaded tip was then washed in binding buffer and placed in the diluted CHO supernatant. The antigen was allowed to bind to antibody for 5 minutes (association phase), and then the tip was moved to binding buffer (dissociation phase). The association and dissociation phases were fit to a 1:1 binding model to determine binding rate constants.
In general terms: Biolayer interferometry detects binding as a change in optical thickness at a sensor tip.
Take B1: the “KD,WT/KD,Ala” value was determined as 0.71.

Consider B2, for which the “KD,WT/KD,Ala” value is 0.6.

In the case of B3, the “KD,WT/KD,Ala” value worked out at 0.87.

On to B4, for which the “KD,WT/KD,Ala” value came to 0.67.

B5: the “KD,WT/KD,Ala” value is 0.69.

Consider B6, for which the “KD,WT/KD,Ala” value was determined as 0.97.

As for B7, the “KD,WT/KD,Ala” value was 0.52.

B8: the “KD,WT/KD,Ala” value is 0.28.

On to B9, for which the “KD,WT/KD,Ala” value came to 0.37.

As for B10, the “KD,WT/KD,Ala” value was 2.07.

For the molecule B11, the “KD,WT/KD,Ala” value was 0.96.

For B12, the “KD,WT/KD,Ala” value turned out to be 1.62.

Consider B13, for which the “KD,WT/KD,Ala” value was determined as 1.08.

As for B14, the “KD,WT/KD,Ala” value was determined as 0.94.

On to B15, for which the “KD,WT/KD,Ala” value is 0.84.

For the molecule B16, the “KD,WT/KD,Ala” value stood at 1.4.

With B17, the “KD,WT/KD,Ala” value amounted to 0.24.

As for B18, the “KD,WT/KD,Ala” value amounted to 1.16.

Consider B19, for which the “KD,WT/KD,Ala” value amounted to 0.73.

These data come from patent publication US20220017612A1 (TILOS THERAPEUTICS, published 2022).
